Measurements as given in patent US20120329718A1.

Target: M2 muscarinic acetylcholine receptor, endogenous, canine atrium (canine)
Experiment: cell-based or functional assay

Row | Substance | vagal-induced ERP shortening in the PLA, 3 days after minigene delivery (Gαi2ctp dogs vs. GαRp control dogs) [ms] | vagal-induced ERP shortening in the PLA, Gαo1ctp minigene given together with Gαi2ctp minigene (vs. Gαi2ctp alone) [ms]
1 | Gαi2 C-terminal peptide expressed from a pFLAG CMV6a minigene (FLAG-tagged Gαi2ctp) | 19.5 | 
2 | Gαo1 C-terminal peptide expressed from a pFLAG CMV6a minigene (Gαo1ctp) |  | 2.8
